# According to publication PMC7603008 (Materials, 2020):
# Columns and labels:
# [1] = tested on: deep cavities in beagle dog premolars; assay: Deep cavity tooth defect model in beagle dog premolars; type: in vivo
# From the text: (§1) For in vivo canine studies, a total of 10 beagle dogs (2 y) were operated on, with all of them reaching end points. For each animal, 4 to 6 maxillary premolars and 6 mandibular premolars were used, depending on their periodontal conditions. Control and experimental groups were allocated to each and every animal so that possible biases resulting from individual nutritional, behavioral, and pulpal conditions could be eliminated. Compared to small animal studies, the sample size was necessarily limited for feasibility and ethical reasons. While the exact numbers for each experiment are included in the figure legends, at least 6 premolars and up to 12 premolars were assigned to every control and experimental group. Investigators performing beagle operation and sampling were not blinded, while investigators involved in histological analysis were blinded. All experiments using animals followed protocols approved by the Institutional Animal Care and Use Committee of Seoul National University (SNU-180416-2-1 and SNU-171020-5-2).
# (§2) Beagle dogs of 1–2 years of age were used for three independent experiments. After disinfecting the cervical regions of the maxillary and mandibular premolars with 0.5% chlorhexidine, dish-shaped class V cavities were prepared using a #4 high-speed round bur (head diameter, 1.4 mm). […]
# [2] = tested on: shallow cavities in beagle dog premolars; assay: Shallow cavity tooth defect model in beagle dog premolars; type: in vivo
# From the text: as §1, §2
# [3] = tested on: cavities in beagle dog premolars; assay: Characterisation of CPNE7-induced hard tissue (SEM, Masson's trichrome, alternative filling materials); type: in vivo
# Description: Beagle dogs of 1–2 years of age were used for three independent experiments. After disinfecting the cervical regions of the maxillary and mandibular premolars with 0.5% chlorhexidine, dish-shaped class V cavities were prepared using a #4 high-speed round bur (head diameter, 1.4 mm). For shallow cavities, the drilling stopped when half to two-thirds of the bur head penetrated the tooth structure, depending on the tooth size. For deep cavities, the drilling stopped when the color of the remaining dentin looked reddish gray. The smear layer was removed with a gentle application of 17% EDTA. After sufficient irrigation, surgical sites were dried with a cotton pellet. For CPNE7 function analysis, the cavities were either untreated or treated with a topical application of rCPNE7 (recombinant CPNE7) protein (1 µg total rCPNE7 per tooth in a buffer containing 25 mM Tris-HCl, 100 mM glycine, and 10% glycerol). After a brief incubation for diffusion, the cavities were then filled with either glass ionomer (GI) cement (GC; Fuji II LC; GC America Inc., Alsip, IL, USA), composite resin (Filtek Supreme Ultra Flowable Restorative; 3 M, MN, USA) or intermediate restorative material (IRM; Dentsply Sirona, New York, PA, USA). For peptide function analysis, an HIV-1 Tat-derived cell-penetrating peptide was used as control. In addition to the abovementioned shallow and deep cavity models, complete pulp exposure was performed for peptide analysis. For complete pulp exposure, the drilling stopped when a pin-point exposure of the pulp was generated and bleeding was evident. Cotton pellets soaked in saline were used for bleeding control. Cavities with exposed pulps were divided into two groups for the experiment. Group 1 received only GI cement filling, group 2 received GI cement filling after MTA (ProRoot MTA; Dentsply Sirona, New York, PA, USA) sealing, and group 3 received GI cement filling after MTA mixed with CPNE7-derived peptide (Cpne7-DP) sealing. […]
# [4] = tested on: dental pulp cells under deep cavities; assay: TUNEL assay of dental pulp at deep cavity preparation areas; type: in vivo, beagle dog; conditions: 3 weeks, versus GI cement only control
# Description: Apoptotic cells were detected using the TUNEL kit (Roche Biochemicals, Basel, Switzerland), according to the manufacturer’s instructions. Endogenous peroxidase activity within the tissue sections were blocked in 3% H2O2 prior to enzymatic labeling. To yield a colored reaction product, enzymatically labeled cells were then incubated with 3,3-diaminobenzidine tetrahydrochloride. Visualization was achieved by incubating the sections with diaminobenzidine tetrahydrochloride (DAB), and subsequent counter-staining with hematoxylin. Positive TUNEL signals were converted to red color using IHC Profiler of Image J software (National Institute of Health, Gaithersburg, MD, USA).
# [5] = beagle dog premolars, topical application, then cavity filling, H&E histology after 3 weeks
# [6] = six weeks instead of three, H&E, n = 6
molecule,measurement,setting,value
"rCPNE7: recombinant CPNE7 protein, a dental epithelium-derived calcium-dependent phospholipid-binding protein (Origene) (protein, UniProt Q9UBL6 1-633, looked up) Copine-7: MSAGSERGAAATPGGLPAPCASKVELRLSCRHLLDRDPLTKSDPSVALLQQAQGQWVQVGRTEVVRSSLHPVFSKVFTVDYYFEEVQRLRFEVYDTHGPSGFSCQEDDFLGGMECTLGQPAQKWLLQVVMRVSVDVLGPAGHCAKHFLCCTESSHLARTGPSFLLRYDDLCLPWATAGAVRWWTCRGGHTQGWQIVAQKKVTRPLLLKFGRNAGKSTITVIAEDISGNNGYVELSFRARKLDDKDLFSKSDPFLELYRVNDDQGLQLVYRTEVVKNNLNPVWEAFKVSLSSLCSCEETRPLKCLVWDYDSRGKHDFIGEFSTTFEEMQKAFEEGQAQWDCVNPKYKQKRRSYKNSGVVVLADLKFHRVYSFLDYIMGGCQIHFTVAIDFTASNGDPRNSCSLHYINPYQPNEYLKALVSVGEICQDYDSDKRFSALGFGARIPPKYEVSHDFAINFNPEDDECEGIQGVVEAYQNCLPRVQLYGPTNVAPIISKVARVAAAEESTGKASQYYILLILTDGVVTDMADTREAIVRASRLPMSIIIVGVGNADFTDMQVLDGDDGVLRSPRGEPALRDIVQFVPFRELKNASPAALAKCVLAEVPKQVVEYYSHRGLPPRSLGVPAGEASPGCTP",New hard tissue formation beneath deep cavity,[1]; [5],newly generated tertiary dentin was present beneath the remaining dentin
same,"Thickness of newly formed tubular dentin, deep cavity",[1]; [6],increased significantly
same,New hard tissue formation beneath shallow cavity,[2]; [5],newly generated tertiary dentin retaining the physiologic tubule structure
same,"Thickness of newly formed tubular dentin, shallow cavity",[2]; [6],increased significantly
same,Collagen content of newly generated dentin area,[3]; Masson's trichrome staining,higher collagen content
same,Hard tissue formation with alternative cavity filling material,"[3]; composite resin or zinc oxide-eugenol (ZOE) filling, H&E after six weeks, n = 6",formation of tubular dentin
same,Presence of dentinal tubules in the newly mineralized area,"[3]; scanning electron microscopy, along the entire length of predentin",clear tubule structure
same,Cell death under the newly generated dentin (TUNEL),[4],significantly reduced cell death
